Where two headings read alike, the source gives them in different places.
Assays:
Assay in all cases: cell-based or functional assay
[1] = target: HA of ca A/Wuhan/359/95 (H3N2) virus (influenza A virus)
[2] = target: HA of A/Hong Kong/8/68 (H3N2) virus (influenza A virus)
[3] = target: HA of ca A/Perth/16/09 (H3N2) virus (influenza A virus)
[4] = target: HA of A/Fort Monmouth/1/47 (H1N1) virus (influenza A virus)
[5] = target: HA of A/Wisconsin/67/05 (H3N2) virus (influenza A virus)
[6] = target: HA of ca A/Beijing/262/95 (H1N1) virus (influenza A virus)
[7] = target: HA of A/Kawasaki/9/86 (H1N1) virus (influenza A virus)
[8] = target: HA of H3-LA87 (A/Los Angeles/7/09 (H3N2)) virus (influenza A virus)
[9] = target: HA of ca A/Panama/2007/99 (H3N2) virus (influenza A virus)
[10] = target: HA of ca A/Texas/36/91 (H1N1) virus (influenza A virus)
[11] = target: HA of A/Victoria/361/11 (H3N2) virus (influenza A virus)
[12] = target: HA of ca A/New Caledonia/20/99 (H1N1) virus (influenza A virus)
[13] = target: HA of A/Victoria/3/75 (H3N2) virus (influenza A virus, UniProt P03435 17-567)
Chain of HA of A/Victoria/3/75 (H3N2) virus (P03435 17-567 limits assumed): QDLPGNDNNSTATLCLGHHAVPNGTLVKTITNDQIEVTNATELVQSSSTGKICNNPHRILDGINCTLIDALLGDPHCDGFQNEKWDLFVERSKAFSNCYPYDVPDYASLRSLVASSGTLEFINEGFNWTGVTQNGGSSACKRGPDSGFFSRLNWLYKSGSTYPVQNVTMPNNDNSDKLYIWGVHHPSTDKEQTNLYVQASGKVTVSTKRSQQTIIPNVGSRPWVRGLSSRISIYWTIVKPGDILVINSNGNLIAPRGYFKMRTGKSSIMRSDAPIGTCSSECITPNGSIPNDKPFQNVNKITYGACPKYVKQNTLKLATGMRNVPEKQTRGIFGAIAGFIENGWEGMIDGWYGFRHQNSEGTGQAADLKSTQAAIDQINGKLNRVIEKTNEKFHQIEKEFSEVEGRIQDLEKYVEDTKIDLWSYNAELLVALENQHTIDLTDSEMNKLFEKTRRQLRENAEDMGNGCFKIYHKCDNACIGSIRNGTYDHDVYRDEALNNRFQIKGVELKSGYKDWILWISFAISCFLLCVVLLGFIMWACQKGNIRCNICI

[14] = target: HA of ca A/Wuhan/359/95 (H3N2) virus (influenza A virus); remark: listed apart in the source
[15] = target: HA of ca A/Sydney/5/97 (H3N2) virus (influenza A virus)
HA of H1-BS10 virus = target: HA of H1-BS10 virus
[16] = target: HA of A/Puerto Rico/8/34 (H1N1) virus (influenza A virus, UniProt P03452 18-565)
Chain of HA of A/Puerto Rico/8/34 (H1N1) virus (P03452 18-565 limits assumed): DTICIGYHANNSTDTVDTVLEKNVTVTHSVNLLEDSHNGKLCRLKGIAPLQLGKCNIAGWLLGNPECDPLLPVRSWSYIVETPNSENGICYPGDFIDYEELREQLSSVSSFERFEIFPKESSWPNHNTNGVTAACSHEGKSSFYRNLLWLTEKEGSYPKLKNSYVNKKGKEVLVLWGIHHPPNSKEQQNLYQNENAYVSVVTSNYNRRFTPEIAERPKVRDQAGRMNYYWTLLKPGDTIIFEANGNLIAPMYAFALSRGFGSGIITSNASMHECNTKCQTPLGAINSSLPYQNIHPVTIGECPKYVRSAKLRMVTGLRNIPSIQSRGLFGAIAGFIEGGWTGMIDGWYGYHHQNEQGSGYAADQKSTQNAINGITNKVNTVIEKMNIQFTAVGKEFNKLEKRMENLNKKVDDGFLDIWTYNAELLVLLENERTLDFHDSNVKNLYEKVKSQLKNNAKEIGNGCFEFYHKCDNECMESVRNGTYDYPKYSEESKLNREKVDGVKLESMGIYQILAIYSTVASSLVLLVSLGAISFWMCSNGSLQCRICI

Binder	Neutralization IC50, H3-WH95 [1] [mg/L]	Neutralization IC50, H3-HK68 [2] [mg/L]	Neutralization IC50, H3-Perth09 [3] [mg/L]	Neutralization IC50, H1-FM47 [4] [mg/L]	Neutralization IC50, H3-Wl05 [5] [mg/L]	Neutralization IC50, H1-BJ95 [6] [mg/L]	Neutralization IC50, H1-Kaw86 [7] [mg/L]	Neutralization IC50, H3-LA87 [8] [mg/L]	Neutralization IC50, H3-Pa99 [9] [mg/L]	Neutralization IC50, H1-TX91 [10] [mg/L]	Neutralization IC50, H3-VC11 [11] [mg/L]	Neutralization IC50, H1-Ncal99 [12] [mg/L]	Neutralization IC50, H3-Vic75 [13] [mg/L]	Neutralization IC50, H3-WH95 [14] [mg/L]	Neutralization IC50, H3-WH95-OR [14] [mg/L]	Neutralization IC50, H3-Syd97 [15] [mg/L]	Neutralization IC50, H1-BS10 (HA of H1-BS10 virus) [mg/L]	IC50 (read off the curve) [16] [mg/L]
Antibody 5 (antibody, V domains shown) VH: QVQLQQSGPGLVKPSQTLSLTCAISGDRVSSNSAVWNWIRQSPSRGLEWLGRTYYRSKWYYDYAESVKSRIVIDPDTSKNQVSLQLNSVTPEDSAIYYCARGGHITVFGLNIDAYDIWGQGAMVTVSS VL: DIQMTQSPSSLSASVGDRVTISCRAQSLSSYLHWYQQKPGQPPKLLIYAATTLQSGVPSRFSGSGSGTDFTLTISTFQAEDVATYYCQQSRTFGQGTKVEIK	3.72																	
Antibody 6 (antibody, V domains shown) VH: QVQLQQSGPGLVKPSQTLSLTCAISGDRVSSNSAVWNWIRQSPSRGLEWLGRTYYRSKWYYDYAESVKSRIVIDPDTSKNQVSLQLNSVTPEDSAIYYCARGGHITEFGLNIDAYDIWGQGAMVTVSS VL: DIQMTQSPSSLSASVGDRVTISCRAQSLSSYLHWYQQKPGQPPKLLIYAATTLQSGVPSRFSGSGSGTDFTLTISTFQAEDVATYYCQQSRTFGQGTKVEIK	10.5																	
Antibody 11 (antibody, V domains shown) VH: QVQLQQSGPGLVKPSQTLSLTCAISGDSVSSYNAVWNWIRQSPSRGLEWLGRTYYRSGWYNDYAESVKSRITINPDTSKNQFSLQLNSVTPEDTAVYYCARSGHITVFGVNVDAFDMWGQGTMVTVSS VL: DIQMTQSPSSLSASVGDRVTITCRTSQSLSSYTHWYQQKPGKAPKLLIYAASSRLSGVPSRFSGSGSGTDFTLTISSLQPEDFATYYCQQSRTFGQGTKVEIK		0.46	0.17	0.43	1.07	1.01	0.53	0.8	2.18	0.11	0.85	0.66	0.46	2.45	2.26	1.53	1.15	
Antibody 10 (antibody, V domains shown) VH: QVQLQQSGPGLVKPSQTLSLTCAISGDSVSSNSATWNWIRQSPSRGLEWLGRTYYRSKWYNDYADFLKRRITINPDTSNNEVSLRLTSVTPDDTALYYCARGGHITVFGVNIDAFDVWGQGTMVTVSS VL: DIQMTQSPSSLSASVGDRITISCRTSQSLRSYLHWYQQKPGKAPKLLIYASSTLQSGVPSRFSGSGSGTDFTLTISNLQPEDFATYYCQLSRTFGQGTKVEIK	8.7																	
Antibody 15 (antibody, V domains shown) VH: QVQLQQSGPGLVKPSQTLSLTCAISGDSVSSNNAVWNWIRQSPSRGLEWLGRTYYRSKWYNDYAESVKSRITINPDTSKNQFSLQLNSVTPEDTAVYYCARSGHITVFGVNVDAFDMWGQGTTVTVSS VL: DIQMTQSPSSLSASVGDRVTITCRTSQSLSSYTHWYQQKPGKAPKLLIYAASSRGSGVPSRFSGSGSGTDFTLTISSLQPEDFATYYCQQSRTFGQGTKVEIK		0.5	0.5	0.35	1.3	1.81	0.48	0.83	3.39	0.13	1.29	0.79	0.35	3.32	3.48	1.79	1.89	
Antibody 13 (antibody, V domains shown) VH: QVQLQQSGPGLVKPSQTLSLTCAISGDSVSSYNAVWNWIRQSPSRGLEWLGRTYYRSGWYNDYAESVKSRITINPDTSKNQFSLQLNSVTPEDTAVYYCARSGHITVFGVNVDAFDMWGQGTMVTVSS VL: DIQMTQSPSSLSASVGDRVTITCRTSQSLSSYDHWYQQKPGKAPKLLIYAASSRLSGVPSRFSGSGSGTDFTLTISSLQPEDFATYYCQQSRTFGQGTKVEIK		0.44	0.28	0.5	1.19	1.86	0.41	1	2.62	0.09	1.03	0.77	0.43	2.77	3.01	2.18	1.23	
Antibody 14 (antibody, V domains shown) VH: QVQLQQSGPGLVKPSQTLSLTCAISGDSVSSNNAVWNWIRQSPSRGLEWLGRTYYRSKWYNDYAESVKSRITINPDTSKNQFSLQLNSVTPEDTAVYYCARSGHITVFGVNVDAFDMWGQGTTVTVSS VL: DIQMTQSPSSLSASVGDRVTITCRTSQSLSSYTHWYQQKPGKAPKLLIYAASSRLSGVPSRFSGSGSGTDFTLTISSLQPEDFATYYCQQSRTFGQGTKVEIK		0.65	0.47	0.44	1.19	2.09	0.35	0.83	4.36	0.09	1.15	0.67	0.44	2.77	3.09	1.82	1.93	
Antibody 3 (antibody, V domains shown) VH: QVQLQESGPGLVKPSQTLSLTCAISGDSVSSNNAVWNWIRQSPSRGLEWLGRTYYRSKWYNDYAESVKSRITVNPDTSKNQFSLHLKSVTPEDTAVFYCVRSGHITVFGVNVDAFDMWGQGTMVTVSS VL: DIQMTQSPSSLSASVGDRVTITCRTSQSLSSYLHWYQQKPGKAPKLLIYAASSLQSGVPSRFSGSGSGTDFTLTISSLQPEDFATYYCQQSRTFGQGTKVEIK	3.96													5.63	7.7			~0.6
Antibody 12 (antibody, V domains shown) VH: QVQLQQSGPGLVKPSQTLSLTCAISGDSVSSYNAVWNWIRQSPSRGLEWLGRTYYRSGWYNDYAESVKSRITINPDTSKNQFSLQLNSVTPEDTAVYYCARSGHITVFGVNVDAFDMWGQGTMVTVSS VL: DIQMTQSPSSLSASVGDRVTITCRTSQSLSSYTHWYQQKPGKAPKLLIYAASSRGSGVPSRFSGSGSGTDFTLTISSLQPEDFATYYCQQSRTFGQGTKVEIK		0.42	0.25	0.28		1.31	0.28	0.82		0.12	0.83	0.61	0.32	2.09	2.34	1.56	1.25	~0.5
Antibody 8 (antibody, V domains shown) VH: QVQLQQSGPGLVKPSQTLSLTCVISGDTVSSNRATWNWMRQSPLRGLEWLGRTYYRSKWYNDYAVSVKSRVVINPDTSKNQVSLQLNTVTPDDSGVYFCARGGHITVFGVNIDAFDIWGLGTKVTVSS VL: DIQMTQSPSSLSASVGDRVTISCRASQRLNSYLHWYQQTPGQAPKLLIYATSTLQSGVSPRFSGSGSGTDFTLTISSLQPEDVATYYCQLSRTFGHGTKVEIK	> 50																	
